Data: publication PMC5552228, “Mapping the contact surfaces in the Lamin A:AIMP3 complex by hydrogen/deuterium exchange FT-ICR mass spectrometry” (PLoS ONE, 2017)

Target: T1, His-Tev-AIMP3 (aminoacyl-tRNA synthetases-interacting multifunctional protein 3) (human, UniProt O43324 1-174)
T1 construct: also called AIMP3/p18; MSC p18; source: E. coli BL21 (DE3), pET28a, purified (Ni-HiTrap, desalting column); not shown: His6-Tev (6-his tag and Tobacco Etch Virus protease cutting site, aa1-22 of the construct), N-terminal, kept
T1 sequence (looked up): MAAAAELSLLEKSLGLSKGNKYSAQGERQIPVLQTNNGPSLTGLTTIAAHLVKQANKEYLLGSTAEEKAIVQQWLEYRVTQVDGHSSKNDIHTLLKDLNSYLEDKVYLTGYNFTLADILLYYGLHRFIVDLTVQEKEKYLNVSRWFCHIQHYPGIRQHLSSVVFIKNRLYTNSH
Assay: HDX-MS; AIMP3 and LmnA mixed in 1:1 ratio, 40 uM stock, 20 mM Hepes, 150 mM NaCl, pH 7.5, diluted into D2O; 0.5-240 min at 0.4 °C; protease type XIII digestion; LC-ESI 14.5 T FT-ICR MS; free against complexed protein
Conditions: both partners purified

binding result: binds
B1: His-Strep-TrxA-LmnA (C-terminal part of Lamin A, 567-646) (domain or fragment, UniProt P02545 567-646, looked up)
chain: GSHCSSSGDPAEYNLRSRTVLCGTCGQPADKASASGSGAQVGGPISSGSSASSVTVTRSYRSVGGSGGGSFGDNLVTRSY
notes: C-terminal part of mature Lamin A, residues 567-646 by the methods (the results say aa567-647, 80 aa); ends in NLVTRSY (203-209 of the construct); also called LmnA C-terminus; LmnA (aa567-647); source: E. coli BL21 (DE3), pET28a, purified (as for AIMP3: Ni-HiTrap, desalting column); not shown: His, N-terminal, kept; Strep, N-terminal, kept; TrxA (thioredoxin), N-terminal, kept
